Laboratory results from patent publication US20230242645A1.

How the values were obtained:
[1] = target: mouse PD-L1 on 293F cells (WBP315.293F.mPro1.C1) (mouse) (UniProt Q9EP73); test: FACS on mouse PD-L1 expressing 293F cells, FITC anti-human IgG
[2] = target: human PD-L1 extracellular domain, his tag (W315-hPro1.ECD.his) (human) (UniProt Q9NZQ7); test: SPR (Biacore T200), antibody captured on anti-human Fc, antigen as analyte, 25 °C
[3] = target: human PD-L1 on CHO-K1 cells (WBP315.CHO-K1.hPro1.C11) (human) (UniProt Q9NZQ7); test: FACS on human PD-L1 expressing CHO-K1 cells, FITC anti-human IgG
Chain of human PD-L1 on CHO-K1 cells (WBP315.CHO-K1.hPro1.C11) (human) (Q9NZQ7 19-290): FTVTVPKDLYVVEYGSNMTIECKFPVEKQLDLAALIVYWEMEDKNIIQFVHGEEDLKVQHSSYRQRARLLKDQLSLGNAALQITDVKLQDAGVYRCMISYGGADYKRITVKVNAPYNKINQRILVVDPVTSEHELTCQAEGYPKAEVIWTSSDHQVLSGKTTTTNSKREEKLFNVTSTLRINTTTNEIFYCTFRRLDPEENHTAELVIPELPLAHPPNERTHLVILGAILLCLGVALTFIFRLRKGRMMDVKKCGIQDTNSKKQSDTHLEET

[4] = target: cynomolgus monkey PD-L1 on 293F cells (WBP315.293F.cPro1.2A) (cynomolgus monkey) (UniProt G7PSE7); test: FACS on cynomolgus PD-L1 expressing 293F cells, FITC anti-human IgG
Chain of cynomolgus monkey PD-L1 on 293F cells (WBP315.293F.cPro1.2A) (cynomolgus monkey) (G7PSE7 entry or part of it limits assumed): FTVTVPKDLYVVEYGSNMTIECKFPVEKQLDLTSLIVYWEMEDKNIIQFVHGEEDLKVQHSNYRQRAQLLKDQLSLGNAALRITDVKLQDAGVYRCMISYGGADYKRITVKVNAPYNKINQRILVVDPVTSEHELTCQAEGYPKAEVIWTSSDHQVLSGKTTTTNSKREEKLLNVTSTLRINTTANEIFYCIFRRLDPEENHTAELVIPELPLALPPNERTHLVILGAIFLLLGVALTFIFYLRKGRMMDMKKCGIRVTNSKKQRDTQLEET

Chain of mouse PD-L1 on 293F cells (WBP315.293F.mPro1.C1) (mouse) (Q9EP73 19-290): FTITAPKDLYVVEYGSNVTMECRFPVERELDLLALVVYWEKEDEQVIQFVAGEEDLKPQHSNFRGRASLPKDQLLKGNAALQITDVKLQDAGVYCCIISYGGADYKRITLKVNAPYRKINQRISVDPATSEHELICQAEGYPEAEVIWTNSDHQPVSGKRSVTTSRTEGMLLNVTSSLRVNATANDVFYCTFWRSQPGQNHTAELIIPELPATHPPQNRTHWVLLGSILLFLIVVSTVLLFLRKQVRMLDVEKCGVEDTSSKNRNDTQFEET
Chain of human PD-L1 extracellular domain, his tag (W315-hPro1.ECD.his) (human) (Q9NZQ7 19-238): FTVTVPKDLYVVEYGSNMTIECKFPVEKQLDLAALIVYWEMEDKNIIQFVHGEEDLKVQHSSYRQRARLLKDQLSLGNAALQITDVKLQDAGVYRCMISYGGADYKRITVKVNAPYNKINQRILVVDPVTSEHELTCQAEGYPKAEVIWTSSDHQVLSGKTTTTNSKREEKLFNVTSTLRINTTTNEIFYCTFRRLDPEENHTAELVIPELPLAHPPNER

W315-BMK8.uIgG1K(RKNA) (Atezolizumab) (antibody)
EC50 (read off the curve) [1]: 2 nM | Kd [2]: 0.0608 nM | EC50 (read off the curve) [3]: 0.1 nM | EC50 (read off the curve) [4]: 2 nM
